Experimental data from the supplement of paper PMC10567573.

B1: ADAMTS4 (parent)
chain: SFRKFRYGYNNVVTIPAGATHILV
B2: PRPH (parent)
chain: RTFGPPPSLSPGAFSYSSSSRFSS

Variants of: B1
Test: protein stability index of a GFP-peptide fusion (GPS, HEK-293T) (PSI 1-6); higher = more stable
Details: c terminus: a fixed tail appended
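Also: lentivirally expressed fusions sorted by FACS into six bins by GFP to DsRed ratio, PSI derived from sequencing read proportions per bin multiplied by bin number.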

Protein stability index, by site and new letter:
L23: W 2.15 | V 2 | Y 2.41
V24: L 2.35 | K 1.7 | N 1.66 | M 2.12 | C 2.39 | A 1.52 | P 1.64 | G 1.81 | Y 2.57 | T 1.44 | S 1.68 | H 1.73 | R 1.34 | D 1.93 | F 3.25 | E 2.34 | W 1.94 | Q 1.75 | I 2

Variants of: B2
Test: as above
Details: c terminus: a fixed tail appended

Protein stability index, by site and new letter:
Y16: F 2.99 | R 3.92 | H 4.04 | C 3.18 | Q 3.62 | A 3.81
S20: I 2.43 | T 2.94 | R 3.41 | D 3.23 | G 2.99 | A 3.71 | L 2.48 | N 3.31 | Y 2.74 | P 3.45 | K 3.81
S23: E 2.79 | D 2.9 | V 2.85 | T 3.23
G12: S 3.42 | L 2.47 | N 3.14 | E 3.27 | T 3.31
P5: H 2.81 | F 2.61 | C 2.64 | K 2.99 | W 2.21 | A 2.76 | R 2.71
L9: C 2.71 | N 3.42 | V 3.31 | H 3.54
G4: L 2.42 | Q 3.26 | S 3.21
A13: R 3.01 | V 2.94 | N 3.94 | W 2.79 | H 3.05 | D 3.5 | K 3.42 | S 2.73 | F 2.98
F3: R 3.41 | A 3.33 | S 3.6 | G 3.13 | D 4.09 | N 3.38
S18: L 2.59 | Y 2.98 | N 3.22 | P 2.93 | I 2.66 | E 3.57 | T 3.25 | R 3.38
R1: E 3.09 | G 3.25 | N 3.7
P11: L 2.59 | W 2.23 | K 2.44 | A 3.11 | T 2.94 | F 2.11 | H 2.74 | I 2.46 | R 3.63
R21: E 3.22 | S 3.02 | H 3.48 | T 3.18 | P 3.25 | C 3.19
P6: K 3.25 | T 2.71 | E 2.83 | L 2.95 | H 2.79 | R 3.02 | W 2.01 | C 2.09
S17: W 2.27
F22: L 3.72 | V 3.8 | S 4.18 | C 3.82 | Q 3.78
F14: R 4.11 | W 3.22 | E 4.21 | L 3.4 | Q 4.01 | N 4.03 | V 3.52
T2: V 2.23 | M 2.52 | C 2.02 | Q 2.92 | S 3.73
S10: Q 3.34 | V 2.78 | K 3.06 | D 2.76
S19: A 3.08 | K 3.7 | P 3.12 | W 2.19
S8: G 2.68 | L 3.14 | C 3.04 | R 3.83 | W 2.75
S24: T 3.23 | L 2.27 | M 2.55 | R 3.85 | Q 3.31 | H 3.55
P7: M 2.77 | F 2.34 | K 3.71 | E 2.89 | N 3.02 | V 2.86 | Y 2.12 | A 3.22 | T 3.56
S15: P 3.03 | A 3.27 | Q 3.18 | K 3.29 | G 3.64 | C 2.33 | W 2.31 | R 2.33 | L 2.62 | F 2.43
